# Experimental data as given in the supplement of paper PMC9170038.
# Tested on: MS2 coat protein
# Experiment: apparent KD of MS2 coat protein, switch OFF state (with FMN for OFF switches, without FMN for ON switches); designed switch direction (-1 OFF switch, 1 ON switch): 1; higher = weaker reporter binding
# Details: FMN input: 0 or 200 uM; Eterna round: R93 (includes R88 designs)
# Outline: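 Binding of SNAP-549-labelled MS2 coat protein was measured on designed RNA switches transcribed on-chip from Illumina sequencing clusters. The protein rose in twofold steps from 0.7 or 1.5 nM to 3 µM, with 0.8–1.5 h per step early on and 10–20 min per step later, in 100 mM Tris-HCl pH 7.5, 80 mM KCl, 4 mM MgCl2, without or with constant ligand. Each design's apparent KD is the median of fits to its normalised cluster binding curves.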
row,Sequence,apparent KD of MS2 coat protein
1,AAAACACAUGAGGAUCACCCAUGUCAAAAAAACACAGGAUAUCCAAAAAAAAAAAAAAAAGGAGAAGGGUGAAAAA [high kcal],42 nM
2,AAUAUACAUGAGGAUCACCCAUGUAUUAAUAGCUGAGGAUAUACGGGUGAAAAUAGCAUAGUAGAAGGCGGGUGUA [SameState1 Malc#10],144 nM
3,AACCAACAUGAGGAUCACCCAUGUCAACCCAAGCGAGGAUAUCGGAGAAUAACAAUGGGACGAGAAGGCGCGACCU [ss1-2],36.9 nM
4,UUAUUACAUGAGGAUCACCCAUGUUUAGUGGUGACAGGAUAUACGAAAAAAAAAAAAAAAGUAGAAGGGUCUUAUU [SS 1.1],50.5 nM
5,"AUAUAUAUAAGGUAGGAUAUCCAAAAAUCCACAUGAGGAUCACCCAUGUAAAGAAAGAAAAAAUGGGAGAAGGACCAUAUAUAUA [77%, More Tesla, 6]",31.9 nM
6,AACAAUCUAUCUGAGGAUAUCAUGUCAAAGACAUGAGGAUCACCCAUGUUGCAGGAAACUGCUCAUGAGAAGGCAGAUAGAUUGA [SS2: 1129],828 nM
7,AGAAAUAAAAGAGAGGAUAUCCAAAAGAAAACAUGAGGAUCACCCAUGUAAAACAAAACAAAAUGGGAGAAGGCUCAAAAUAAGA [Topaz 15],31.4 nM
8,AAGAAACAUGAGGAUCACCCAUGUACCCAAAAGGCAGGAUAUGGGAAAGAAAGAAAGAAACCAGAAGGGCCAUGAA [Sogdianus],57.1 nM
9,AACCAACAUGAGGAUCACCCAUGUCUACAGGAUUAAGGAUAUGGGCAGGGCUUCCCUGCACUAGAAGGUGAUCCAA [Enonenen],52.3 nM
10,AGAAAUAAAGGAGAGGAUAUCCAAAAGAAAACAUGAGGAUCACCCAUGUAAAAGAAAAUAAAGUGGGAGAAGGCUUCAAAUAAGA [Starry modified V5],45.2 nM
11,AUAUAUAUAAGACAGGAUAUCCUAAAGUAAACAUGAGGAUCACCCAUGUAAAGAAAGAAACUCAUGGAGAAGGGUCAAUAUAUAU [Mat - Same State 2 - Tesla mod - D81],48.6 nM
12,GAAAAACAUGAGGAUCACCCAUGUGGAAAUAUGGGAGGAUAUACGAAGACGAAAGUCGAAGUAGAAGGCCUAAAAG [Same State 1.4d (Mat - Mod of Eli - )],98.1 nM
13,AAAAAACAUGAGGAUCACCCAUGUCUUCGGACAUGAGGAUAUGUACAGACUUCGGUCUGUACAGAAGGCAUAAAAA [SS1 - 1010],12.6 nM
14,AAAAAACAUGAGGAUCACCCAUGUGAAAAAUUCGCAGGAUAUCCCUUUUUUAAAUGGGAGGGAGAAGGGUGAAAAA [Nob's Hobby 16 - Jieux - Same State 1],112 nM
15,GAAAAACAUGAGGAUCACCCAUGUAGAAAUAUGGUAGGAUAUACAAAGACGAAAGUCAAAGUAGAAGGGCCAAAAG [Starry Same State 1.4 (mat747 round 1 mod)],19 nM
16,GAAAAACAUGAGGAUCACCCAUGUAAGAUAAACACAGGAUAUGCGAAAAUAAACAAAUAAGCAGAAGGGUGAAAAG [Mat - Same State 1 - Tesla mod - 77],47.4 nM
17,CGAAGACAUGAGGAUCACCCAUGUGGGAUUAUGGGAGGAUAUACAAAGACGAGAGUCAGAGUAGAAGGCCUAGGAA [salish99-ss1-124(!)],38.5 nM
18,"AGAAAUAAAGGAGAGGAUAUUCAAAAAGGGACAUGAGGAUCACCCAUGUAAAAGAAAAUAAAAUGGGAGAAGGCUCUAAAUAAAG [80%, More Helter Skelter 2]",47.2 nM
19,GAGAAGAAGAGAGAGGAUAUCCAAAGGAAAACAUGAGGAUCACCCAUGUAAAAGGUAGGAAAUUGGGAGAAGGCUCAAAAGAGGG [salish99-ss2-028(!)],44 nM
20,"AGGAAACAUGAGGAUCACCCAUGUAAAAAUAACGCAGGAUAUGGAAACACGAAAGUGAAACCAGAAGGGUGAAAAG [77%, Mat - Mod of Eli, 14]",29.8 nM
21,AAAAAACAUGAGGAUCACCCAUGUCAAAAGACAUGAGGAUAUGUACAGACUUCGGUCUGUACAGAAGGCAUGUCAA [SS1 - 1019],31.7 nM
22,CGAAGACAUGAGGAUCACCCAUGUCGUCGUAACAGAGGAUAUGGGAGCGCCAAGGGCGCAUCAGAAGGCUGAAAAC [Beusle],25.1 nM

row,Sequence,apparent KD of MS2 coat protein
1,CAGAGGAAGAGAGAGGAUAUCCAAAGGAAAACAUGAGGAUCACCCAUGUAAAAGGUAGGAAAUUGGGAGAAGGCUCAAGAGAGAG [salish99-ss2-064],34.6 nM
2,AUACUGGAGGACAAGGAUAUGUGCUCCACGACAUGAGGAUCACCCAUGUGCGACGUGGUAGUGAAACAGAAGGUGUCCUAUUGUA [Edonisve],17.7 nM
3,"GAUAAACAUGAGGAUCACCCAUGUAGAUAUAUGGGAGGAUAUACAAAGACGAUAGUCAUAGUAGAAGGCCUAAUAG [77%, Mat - Mod of Eli - With 5 more U's]",91.2 nM
4,AACAAUCUAUCUGAGGAUAUCAAGUCAAAGACAUGAGGAUCACCCAUGUGCAGGAAAACUGCAUUUGAGAAGGCAGAUAGAUUGA [SS2: 1108],12.1 nM
5,AUAUAUAUAAGGUAGGAUAUCCAAUAAUCCACAUGAGGAUCACCCAUGUAAAGAAAGAAAAAGUGGGAGAAGGGCCAUAUAUAUA [viburnum 7],48.4 nM
6,"AAACCACAUGAGGAUCACCCAUGUAAAAAAAACACAGGAUAUGGAAACACGAAAGUGAAACCAGAAGGGUGAAAAA [77%, Mat - Mod of Eli, 26]",26.2 nM
7,AAAAAAAAAGUCGAGGAUAUCCACAUGGCUACAUGAGGAUCACCCAUGUGAAGAAAAGCACAUGAGGAGAAGGCGACAAAAAAAAA [Tightrope],24.5 nM
8,UAGAGACAUGAGGAUCACCCAUGUAGGAUUAUGGGAGGAUAUACAAAGACGAGAGUCAGAGUAGAAGGCCUAGGAU [salish99-ss1-134(!)],61.4 nM
9,GAAAAACAUGAGGAUCACCCAUGUAGAAAUAUGGGAGGAUAUACAAAGACGAAAGUCGAAGUAGAAGGCCUAAAAG [Mat - Same State 1 - Eli mod - D23],66.8 nM
10,AAAGAAUGAAGGCAGGAUAUGUGAAAAAAAACAUGAGGAUCACCCAUGUAAUAAAUGGGUACAAAACAGAAGGGCCAAGAAACAA [SS 2 Tesla 3],700 nM
11,CAUAGACAUGAGGAUCACCCAUGUAGAAUUAUGGGAGGAUAUACAAAGACGAGAGUCAGAGUAGAAGGCCUAGGAG [salish99-ss1-163],34 nM
12,AGAAGACAUGAGGAUCACCCAUGUGCACGUGGAGGAGGAUAUGCUAGUAGAAGAUAGAAUGCAGAAGGCCUAAGAA [Mat - Mod],38.5 nM
13,AAUAGACAUGAGGAUCACCCAUGUAGAAUUAUGGGAGGAUAUACAAAGACGAGAGUCAGAGUAGAAGGCCUAGGAG [salish99-ss1-150],48.3 nM
14,CAGGACCUAGGAUAGGAUAUAUGAAUAAUUACAUGAGGAUCACCCAUGUCCAUUUAUAUGGGAACAUAGAAGGGUUGUGGUUAUG [Mat - Same state - Malcolm Mod - D133],118 nM
15,AAUAAACAUGAGGAUCACCCAUGUACCUACCACUAAGGAUAUGGGCGAAUAACAGCUCGGCCAGAAGGUAGAGGUG [Onususer],82.9 nM
16,AAAAGACAUGAGGAUCACCCAUGUAAAAACGUAGGAGGAUAUGUCGUGAAAAAAGACUUGGCAGAAGGCCUGUGUC [SS1 - 39],50.5 nM
17,AGAAAUAAAAGACAGGAUAUCCACUCAAAAACAUGAGGAUCACCCAUGUAAAAGAAAAUAAAAUGGGAGAAGGGUCAAAAUAAGA [Jieux modified + C segment V7],48.6 nM
18,GAAAUAAAAAGACAGGAUAUCCAAAAGAAAACAUGAGGAUCACCCAUGUAAAGAAAAUAAAAAUGGGAGAAGGGUCAAAUAAAAG [Mat - Same State 2 - JL mod - D54],32.8 nM
19,AAGACACAUGAGGAUCACCCAUGUCAAGAGAGACGAGGAUAUCUGAAUUAAUUAAAUUAAGGAGAAGGCGUGAAAA [Same State of Confusion2],58.1 nM
20,AUUCCAAAUAGUCAGGAUAUCAGGCGUAAGACAUGAGGAUCACCCAUGUACUUAGUAAAAGUAACUGAGAAGGGACAGGGUGUAA [JR_SS002_Sub407],18.5 nM
21,AGAAAUAAAGCUGAGGAUAUGGGUAAAUACACAUGAGGAUCACCCAUGUAAAAGAAAAUAAAAAACCAGAAGGCAGCAAAUAAGA [Designing denovo 4],30.8 nM
